Where a chain is given by its changes, count along the chain named. Numbers in names are those of the source.
T1: CLAVATA2 (CLV2), wild type, tagged with GFP (Arabidopsis thaliana, UniProt O80809 26-720)
T1 construct: CLAVATA2 (CLV2), Arabidopsis thaliana, LRR receptor-like protein, wild type, from cDNA; also called CLV2-GFP; source: N. benthamiana, transiently expressed from an inducible vector, in living cells
T1 sequence (looked up): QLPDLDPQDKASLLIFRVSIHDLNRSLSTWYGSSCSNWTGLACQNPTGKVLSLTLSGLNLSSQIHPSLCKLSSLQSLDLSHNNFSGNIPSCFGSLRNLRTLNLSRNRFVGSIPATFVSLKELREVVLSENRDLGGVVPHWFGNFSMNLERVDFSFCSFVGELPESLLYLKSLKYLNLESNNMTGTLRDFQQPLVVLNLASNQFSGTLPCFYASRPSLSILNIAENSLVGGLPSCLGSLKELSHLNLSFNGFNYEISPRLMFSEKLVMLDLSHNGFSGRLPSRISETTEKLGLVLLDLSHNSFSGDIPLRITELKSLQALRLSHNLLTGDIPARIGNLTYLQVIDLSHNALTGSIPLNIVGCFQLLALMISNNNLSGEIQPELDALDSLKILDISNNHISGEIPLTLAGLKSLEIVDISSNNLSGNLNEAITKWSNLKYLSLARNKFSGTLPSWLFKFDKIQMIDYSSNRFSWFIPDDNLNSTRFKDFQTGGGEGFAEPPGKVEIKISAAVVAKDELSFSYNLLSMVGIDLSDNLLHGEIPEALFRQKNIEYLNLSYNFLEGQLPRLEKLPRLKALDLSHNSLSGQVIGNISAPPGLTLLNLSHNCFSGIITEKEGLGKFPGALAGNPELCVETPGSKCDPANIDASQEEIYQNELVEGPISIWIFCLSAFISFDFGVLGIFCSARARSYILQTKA

T2: CLAVATA2 (CLV2), wild type, tagged with mCherry (Arabidopsis thaliana, UniProt O80809 26-720)
T2 construct: CLAVATA2 (CLV2), Arabidopsis thaliana, LRR receptor-like protein, wild type, from cDNA; also called CLV2-mCherry; source: N. benthamiana, transiently expressed from an inducible vector, in living cells
T2 sequence (looked up): T1 sequence (looked up)

B1: CORYNE (CRN), wild type, tagged with mCherry (natural protein, Arabidopsis thaliana, UniProt Q9LYU7 34-401, looked up)
chain: TSCRRRTVKHLSTTSTSSTPLESRITSKVIVISIVSGILTGLVSALVLAFLVRSIVKFMKQTPILKGPVVFSPKITPKSLHAALSNGIQLLGSDLNGKYYKMVLDNGLVVAVKRLGSLEGVGSPESSSSKSVKRRLQKELELLAGLRHRNLMSLRAYVRESDEFSLVYDYMPNGSLEDVMNKVRTKEVELGWEIRLRVAVGIVKGLQYLHFSCETQILHYNLKPTNVMLDSEFEPRLADCGLAKIMPSSHTAVSCYSAPESSQSNRYTDKSDIFSFGMILGVLLTGRDPTHPFCEESASGGSLGQWLKHLQQSGEAREALDKTILGEEVEEDEMLMALRITIICLSDFPADRPSSDELVHMLTQLHSF
notes: CORYNE (CRN), Arabidopsis thaliana, wild type, from cDNA; the longer splice variant, not gene model AT5G13290.1; also called CRN-mCherry; source: N. benthamiana, transiently expressed from an inducible vector, in living cells
B2: CORYNE (CRN), wild type, tagged with GFP (natural protein, Arabidopsis thaliana, UniProt Q9LYU7 34-401, looked up)
chain: B1 chain
notes: CORYNE (CRN), Arabidopsis thaliana, wild type, from cDNA; Residue numbers (G70, S156, Q296) count on the longer splice variant, not on gene model AT5G13290.1, on which S156 is S131; also called CRN-GFP; source: N. benthamiana, transiently expressed from an inducible vector, in living cells
B3: CRN with S156D (putative phosphomimetic variant), tagged with GFP (natural protein, Arabidopsis thaliana, UniProt Q9LYU7 34-401, looked up)
chain: B1 chain with S123D
notes: CRN, Arabidopsis thaliana, serine 156 replaced with aspartic acid; S156 is S131 on gene model AT5G13290.1 (the shorter splice variant); also called CR(SD)-GFP; CR(SD); source: N. benthamiana, transiently expressed, in living cells
B4: CRN with S156A (phosphomute variant), tagged with GFP (natural protein, Arabidopsis thaliana, UniProt Q9LYU7 34-401, looked up)
chain: B1 chain with S123A
notes: CRN, Arabidopsis thaliana, serine 156 replaced with alanine; S156 is S131 on gene model AT5G13290.1 (the shorter splice variant); also called CR(SA)-GFP; CR(SA); source: N. benthamiana, transiently expressed, in living cells
B5: crn-1 variant of CRN (G70E in the predicted TMD), tagged with GFP (natural protein, Arabidopsis thaliana, UniProt Q9LYU7 34-401, looked up)
chain: B1 chain with G37E
notes: CRN, Arabidopsis thaliana, with the amino acid exchange G70E of the EMS-induced crn-1 allele in the predicted TMD; also called crn-1-GFP; source: N. benthamiana, transiently expressed, in living cells
B6: crn-3 variant of CRN (translational stop at Q296, kinase domain shortened by one third), tagged with GFP (domain or fragment, Arabidopsis thaliana, UniProt Q9LYU7 34-295, looked up)
chain: TSCRRRTVKHLSTTSTSSTPLESRITSKVIVISIVSGILTGLVSALVLAFLVRSIVKFMKQTPILKGPVVFSPKITPKSLHAALSNGIQLLGSDLNGKYYKMVLDNGLVVAVKRLGSLEGVGSPESSSSKSVKRRLQKELELLAGLRHRNLMSLRAYVRESDEFSLVYDYMPNGSLEDVMNKVRTKEVELGWEIRLRVAVGIVKGLQYLHFSCETQILHYNLKPTNVMLDSEFEPRLADCGLAKIMPSSHTAVSCYSAPESS
notes: signal peptide in the construct; CRN, Arabidopsis thaliana, truncated by the point mutation at Q296 of the EMS-induced crn-3 allele, which causes a translational stop; also called crn-3-GFP; source: N. benthamiana, transiently expressed, in living cells

Assays:
Assay in all cases: FRET or BRET; FRET-APB (acceptor photobleaching) in transiently transformed Nicotiana benthamiana cells; GFP donor, mCherry acceptor bleached in a region along the plasma membrane; apparent FRET efficiency as donor-dequenching in %
[1] = biological target: CLAVATA2 (CLV2), wild type, tagged with mCherry (Arabidopsis thaliana) (UniProt O80809)
[2] = biological target: T1, CLAVATA2 (CLV2), wild type, tagged with …; conditions: partners not purified
[3] = biological target: CLV2 with the first conserved arginine of the RxR motif replaced with an alanine, tagged with GFP (Arabidopsis thaliana) (UniProt O80809)
[4] = biological target: CLV2 with the entire RxR motif deleted, tagged with GFP (Arabidopsis thaliana) (UniProt O80809)
[5] = biological target: chimeric protein of the CLV2 LRR-receptor and its TMD fused to the CRN kinase domain, tagged with GFP (Arabidopsis thaliana) (UniProt Q9LYU7)
[6] = biological target: T2, CLAVATA2 (CLV2), wild type, tagged with …; conditions: partners not purified

Molecule	D-d (%) (donor-dequenching, apparent FRET efficiency) [1]	D-d (%) (donor-dequenching, apparent FRET efficiency) [6]	also measured
shortened CRN protein lacking the kinase, tagged with GFP (domain or fragment)	24.5		
CRN lacking the N-terminal, distal part of the extracellular domain, tagged with GFP (from UniProt Q9LYU7 34-62) (natural protein)	11.2		
chimera of CRN in which the kinase is replaced with the kinase domain of CLV1, tagged with GFP (from UniProt Q9SYQ8 692-968)	10.3		
CRN lacking the entire extracellular domain, tagged with GFP (from UniProt Q9LYU7 34-62) (natural protein)	7.2		
CRN lacking the proximal part of the extracellular domain adjacent to the TMD, tagged with GFP (from UniProt Q9LYU7 34-62) (natural protein)	10.5		
B1			D-d (%) (donor-dequenching, apparent FRET efficiency) [2]: 11.7%; D-d (%) (donor-dequenching, apparent FRET efficiency) [3]: 14.2%; D-d (%) (donor-dequenching, apparent FRET efficiency) [4]: 11.4%; D-d (%) (donor-dequenching, apparent FRET efficiency) [5]: 5.7%
B2		10.5	
B3		12.2	
B4		13.5	
B5		5.2	
B6		18.3	

— PMC4983110, “Shared and distinct functions of the pseudokinase CORYNE (CRN) in shoot and root stem cell maintenance of Arabidopsis” (Journal of Experimental Botany, 2016)
